{"source": "the nanobody polyreactivity screen of Harvey et al. (2022)", "data": [{"test": "yeast display, Sf9 membrane polyspecificity reagent, FACS + sequencing; frameworks hold sequencing errors", "procedure,_shortened": "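After 36–48 hours of galactose induction, yeast (Saccharomyces cerevisiae BJ5465) displaying a synthetic nanobody library were stained at 4 °C for 1 hour with 10% biotinylated, detergent-solubilized Sf9 membrane reagent. Streptavidin microbeads enriched the stained cells before FACS sorting into low and high (top ~1%) gates on anti-HA and streptavidin fluorescence. Each clone's polyreactivity label reflects its gate of origin.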", "values": [{"sequence": "QVQLLESGGGLVQAGGSLRLSCAASGSIFLLNAMGWYRQAPGKERELVASISRGGVRTNYADSEKGRFTISRDNAKNTVYLQMISLKPEDTAVYYCAAGTRPFGYRRDYWGQGTQVTVSS", "polyreactivity (PSR sort gate)": "high polyreactivity"}, {"sequence": "QVQLLESGGGLVQAGGSLRLSCAASGSIFTPNNMGWYRQAPGKESEFVAAITFSGGSTYYADSVKGRFTISRDNAKNTVYLQMNSLKPEDTSVYYCAAVYPTYDWYTPAYYYWGQGTQVTVSS", "polyreactivity (PSR sort gate)": "low polyreactivity"}, {"sequence": "QVQLLESGGGLVQAGGSLRLSCAASGSIFTVYAMGWYRQAPGKERELVAAITGSGGRTYYADSVKGRFTISRDNAKNTVYLQRNSLKPEDTAVYYCAATTRPGYRYEGDYWGQGTQVTVSS", "polyreactivity (PSR sort gate)": "low polyreactivity"}, {"sequence": "QVQLLESGGGLVQAGGSLRLSCAASGSIFVGYAMGWYRPAPGKERELVASITTPGGSTHYADSVKGRFTISRDNAKNTVYLQMNSLKPEDTAVYYCAADSLSNGVLQYLPGYDYWGQGTQVTVSS", "polyreactivity (PSR sort gate)": "low polyreactivity"}, {"sequence": "QVQLLESGGGLVQAGGSLRLSCAASGSIFVKYDMGWYRQAPGKDRELVAAIRSGASTTYADSVKGRFTISRDNAKITVYLQMNSLKPEDTAVYYCAADQRGWGYTYGKGGDYWGQGTQVTVSS", "polyreactivity (PSR sort gate)": "low polyreactivity"}, {"sequence": "QVQLLESGGGLVQAGGSLRLSCAASGSIIPYYAMGWYRQAPGKESELVAAITSGGGSTYYADSVKGRFTISRDNAMNSVYLQMNSLKPEDTAVYYCAAVLTSYYGGDYWGQGTQVTVSS", "polyreactivity (PSR sort gate)": "low polyreactivity"}, {"sequence": "QVQLLESGGGLVQAGGSLRLSCAASGSILFTNAMGWYRQAPGKERELVAAISSGGSTYYADSVKGRFTFSRDNAKNTVYLQMNSLKPEDTAVYYSAADQLNVGREYVEYDYWGQGTQVTVSS", "polyreactivity (PSR sort gate)": "low polyreactivity"}, {"sequence": "QVQLLESGGGLVQAGGSLRLSCAASGSILIKYAMGWYRQAPGKERELVATITSGGSTYYADSVKGRFTISRDNAKNTVYLQMNSLKPEDTAVYYCATGQYYYYGIVAFFELDYWGQGTQVTVSS", "polyreactivity (PSR sort gate)": "low polyreactivity"}, {"sequence": "QVQLLESGGGLVQAGGSLRLSCAASGSTFCANAMGWYRQAPGKVWELVARITYSGGSTYYADSVKGRFTISRDNAKNTVYLQMNSLKPDDTAVYFCAADLPGKFDYWGQGTQVTVSS", "polyreactivity (PSR sort gate)": "low polyreactivity"}, {"sequence": "QVQLLESGGGLVQAGGSLRLSCAASGSTFKKNAMGWYRQAPGKETELVAAISGIGTRTSYADSVKGRFTISRDNAKNTVYLQMNSLKPEDTAVYYCAARYYGFPSTLKYDYWGQGTQVTVSS", "polyreactivity (PSR sort gate)": "high polyreactivity"}, {"sequence": "QVQLLESGGGLVQAGGSLRLSCAASGSTFLYNAMGWYRQAPGKERELVAGIRRSGGSTYYADSVKGRFTISRDNAMNTVYLQMNSLKPEDTAVYYCNTDRTLSYQYGGYDYWGQGTQVTVSS", "polyreactivity (PSR sort gate)": "low polyreactivity"}, {"sequence": "QVQLLESGGGLVQAGGSLRLSCAASGSTFWWNTMGWYRQAPGKERELVADIRPSGGGTYYADSVKGRFTISRDNAKNTVYLPMHSLKPEATAVYYCNADPKWEMGSWGQGTQVTVSS", "polyreactivity (PSR sort gate)": "low polyreactivity"}, {"sequence": "QVQLLESGGGLVQAGGSLRLSCASSGYINSYYTMGWYRHATGKERVLVASIRWAGGRTYYADSVKGRFTFSRDNAKITVYLQMNSLKPEDTAVYYCNVKSSRFLDVGRMEYWGQGTQVTVSS", "polyreactivity (PSR sort gate)": "high polyreactivity"}, {"sequence": "QVQLLESGGGLVQAGGSLRLSSASSSFIFYSNDMGSYRQAPGKERELVAAISRRCGSTYYADSVKGRFTISRDNAKNTVFLQMNSLKPEDTAVYYCAARVGSGFDSWGQGTQVTVSS", "polyreactivity (PSR sort gate)": "high polyreactivity"}, {"sequence": "QVQLLESGGGLVQAGGSLRLTCAASGFTFDLNAMGWYRQAPGKERELVAAISYSGDDTYYADSVKGRFTISRDNAKNTVYLQMNSLKPEDTAVYYCAADATWTYYQLYDYWGQGNQVTVSS", "polyreactivity (PSR sort gate)": "low polyreactivity"}, {"sequence": "QVQLLESGGGLVQAGGSLRLTCAASGITFQYYAMGWYRQAPGKERELVAAITSSGVSTYYADSVKGRFTISRDNAKNTVYLQMNSLKPEDTAVYYCNTVVRGWSSSAYDYWGQGTQVTVSS", "polyreactivity (PSR sort gate)": "low polyreactivity"}, {"sequence": "QVQLLESGGGLVQAGGSLRLTCAASGRTFQYNAMGWYRQAPGKERELVGAISSTGGSTYYADSVKGRFTISRDNAKNTVYLQMNSLKPEDTAVYYCARQGRYTRGDYWGQGTQVTVSS", "polyreactivity (PSR sort gate)": "high polyreactivity"}, {"sequence": "QVQLLESGGGLVQAGGTLRLSCAASGYTFAWYAMVWSRQAPGKERELVAAINNGGSTSYADSVKGRFTISRDNAKNTVYLQMNSLKREDTAVYYCAARPGAHPDRLDYWGQGTQVTVSS", "polyreactivity (PSR sort gate)": "low polyreactivity"}, {"sequence": "QVQLLESGGGLVQAGRSLRLSCAPSGIIFRVYAMGWYRQAPGKERELVAAISSSGGNTYYADSVKGRFTISRDNAKNTVYLQLNSLKPEDTAVYYCAAPYGQLFTQGTWYEYWGQGTQVTVSS", "polyreactivity (PSR sort gate)": "low polyreactivity"}, {"sequence": "QVQLLESGGGLVQARGSLRLSCAASGSIFTYYAMGWYRQAPGIEREFVAAISRRGGSTYYADSVKGRFTISRDNAKNTVYLQMNSLKAVDTAVYYCAKDPSFTRGYKEGGGYDYWGQGTQVTVSS", "polyreactivity (PSR sort gate)": "high polyreactivity"}, {"sequence": "QVQLLESGGGLVQAVGSLRLSCAASGIIFWVNAMGWYRQAPGKERELFAAIRSDGSTKYADSVKGRFTISRDNAKNTVYLLMNSLKPEDTAHYYCAKRDYSYTWLRDYYYWGQGTQVTVSS", "polyreactivity (PSR sort gate)": "low polyreactivity"}, {"sequence": "QVQLLESGGVLDQAGGSLRLTCAASGSIFFTNAMGWYRQAPGKERELVAAIRQSGGSTFYADSVKGRFTISRDNAKNTVYLQLNSLKPEDTAVFYCNADGRHKWQYSSYDYWGQGTQLTVSS", "polyreactivity (PSR sort gate)": "low polyreactivity"}, {"sequence": "QVQLQDSGGGLVLAGGSLRLSCSASGNISVYGSMGWYRQAPGKEREFVATIDPGTNTNYADSVKDRFTISRDNAKNTVYLQMNSLKPEDTAVYYCAVEAGSDWPYRYWGQGTQVTVSS", "polyreactivity (PSR sort gate)": "low polyreactivity"}, {"sequence": "QVQLQDSGGGLVQAGGSLRLSCAASGTISYRYRMGWYRQAPRKELELVAGIRFGSITYYADSVKGRFTISRDNAKNTVYLQMNSLKPEDIAVYYCAVYQKSYRFFPYWGQGTQVTVSS", "polyreactivity (PSR sort gate)": "high polyreactivity"}, {"sequence": "QVQLQDSGGGLVQAGGSLRQSYAASGYIFPSLAMGWYRQAPGKEREFVAAIGRGSTNNYADSVKGRFTISRDNAKNTAYQQMNSLKPEDTAVYYCAAAASPLTRHLYWGQGTQVTVSS", "polyreactivity (PSR sort gate)": "low polyreactivity"}, {"sequence": "QVQLQDSGGGLVQAVGSQRMSCAASGYIFYFQYMGWYRQAPGKEREFVAAISDGANTNYADSVKGRFTISRDNAKNTEYLQMYCLKPEDTAVYYCAVYADENYYYIYWGQGTQVTVSS", "polyreactivity (PSR sort gate)": "low polyreactivity"}, {"sequence": "QVQLQECGGGLVQAGGSLRLSCAASGNIFDADIMGWYRQAPGKERELVASVTDGGSTNYADSVKGRFTISRDNAKITVYLQLNSLKPEDTAVYYCAAIVYPDILTDFDYDYDYFYWGQGTQVTVGS", "polyreactivity (PSR sort gate)": "low polyreactivity"}, {"sequence": "QVQLQEGGGGLVQAGGSLRLSCAASGYISYGDVMGWYRQAPGEERELVASIGLDATTNYADSVKGRFTISRDNAKITVYLQMNSLKPEDTAVYYCAADVGSGVLCGYWGQGTQMTVSS", "polyreactivity (PSR sort gate)": "high polyreactivity"}, {"sequence": "QVQLQEIGGCLVQAGDSHRLSCAASGNIFPFTDMGWNRQAQGKERELVAAINAGSTTYYADSVKGRFTISRDNAKITVYLQLISLKPEDTAVYYCAVYYLGSGTFCYWGQGPQVTVSS", "polyreactivity (PSR sort gate)": "high polyreactivity"}, {"sequence": "QVQLQEIGGGLVQAGGSLRLSCAASGYISLAKTIGLSRQAPGKEREFVASIALGSSTYYTDSVKGSFTISRDNAKTTVYLQMNRLKPEDTAVYYCAARVGASYAHDYGGQGTQVTVSS", "polyreactivity (PSR sort gate)": "low polyreactivity"}, {"sequence": "QVQLQENGGGLVQAGGSLRLSCAASGTILYSLGMGWYRQAPGKRREFVASITWGTTTNYAESVKGRFTISRDNAKNSVYPQMNSLKPEDTAVYYCAAPPFGDSSYHYWGQGTQVTVSS", "polyreactivity (PSR sort gate)": "low polyreactivity"}, {"sequence": "QVQLQERAAWCRRAGSLRLSCAASGNISDYYFMGWYRQAPGKERELVAAIAPGSNTYYADSVKGRFTISRDNAKNTVYLQMNSLKPEDTAVCFCGANSTQYTWFDYWGQGTQVPVSS", "polyreactivity (PSR sort gate)": "low polyreactivity"}, {"sequence": "QVQLQERGGGLMQAGGSQRLSCAASGSISYYSDMGWYRQAPGTEREFVAGIGYGTTTNYADSVKGRFTTSRDNAKNTVDLQMISMKPEDTAVYYCAAYQGNGYEFYYWGQGTQVTVRS", "polyreactivity (PSR sort gate)": "low polyreactivity"}, {"sequence": "QVQLQERGGGLVQAGGSLRLSCAASCTIFRFRYMGWHRQAPGKERELVAGINGGTTTYYADSVIGRFTISRDNAKNTLYLQMNSLKPDDTAVYNCAAVASRLTYYDYWGQGTQVTVSS", "polyreactivity (PSR sort gate)": "low polyreactivity"}, {"sequence": "QVQLQERGGGLVQAGGSLRLSCAASGNIFEADIMGWYHQAQGKDRELVASITDGGSTNYADSVKGRFTINRDNAKNKVSRQMNSLKPEDTALYYCAAYGNARLKEHYYWGQGTQVTVSS", "polyreactivity (PSR sort gate)": "high polyreactivity"}, {"sequence": "QVQLQERGGVLVQAGGSLRLSCAASGTISYAPHMGWYRQATGKERELVAGITIGGTTYYADSVKGRFTISRDNAIHTVYLHMNSLCRGDTAVYFFAAHSEQYTPFYYWGQGTQLTVSS", "polyreactivity (PSR sort gate)": "low polyreactivity"}, {"sequence": "QVQLQESAGGLVQAGGSLRLRCSASGYISCDASMGWYRQAAGKERELAASITKGSSTNYADSVKGRFTIRDNAKNTVYLQMNSLKPEDTAVCYCAVTYPYWGDYTYWGQGTQVTVSS", "polyreactivity (PSR sort gate)": "low polyreactivity"}, {"sequence": "QVQLQESGAGLVQAGGSLRLSCAASGSISAVGAMCWYRQAPGKEREFAASVNWATNTNYADSVKGRFTISRDNAKNTLYLQMNSLKPEDTAVYYCAVLPDWETRHDYWGHGTQVTVSS", "polyreactivity (PSR sort gate)": "low polyreactivity"}, {"sequence": "QVQLQESGCGLVQAGGSLRLTCAASGSISYPRTMGWSRQAPGKEREFVAGIGVGGTTYYADSVIGRFTISRDNAKNTVYLQMNSLKPEDTAVYYCAVYSGDDYYHDYWGQGTQVTVSS", "polyreactivity (PSR sort gate)": "low polyreactivity"}, {"sequence": "QVQLQESGCGLVQVGGSLRLSCAASGTTFIYGFLGWNRQAPGKERELVASINLGGFTNYADSVKGRFTISRDNAKNTVYLQMISLNPEDSAVFYCAAYVVTGQNYGYWGKGTQVTVSS", "polyreactivity (PSR sort gate)": "low polyreactivity"}, {"sequence": "QVQLQESGDGLVQAGGSLRLSCAASGNIYDADIMGWYRQAPGKERELVTSITDGGSTNYADSVKGRFTISRDNAKNTVYLQMNSLKPEDTAVYYCAAIAYPDIPTSFDYNSDYSYWGQGTQVTVSS", "polyreactivity (PSR sort gate)": "low polyreactivity"}, {"sequence": "QVQLQESGGDLEQAGGSLRLSCTASGTNSDVRVMGWYRQAPGKERELVATISYVTITYYADSVKGRLTISRDSEKHRVSADDEPETGRYRGVLLRYYWGLGTQVTVSS", "polyreactivity (PSR sort gate)": "low polyreactivity"}, {"sequence": "QVQLQESGGGLAQAGGSLRLICAASGTLFPADSMGWYRQAPGKERELVAGITSGANTYYADSVNGRFTISHDNAKQTVYLQMDSLIPEDIAVYYCAAPGSSTYDLESWGQGTQVNVSS", "polyreactivity (PSR sort gate)": "high polyreactivity"}]}]}
